Consider one substance from publication PMC6479064.

For assay [1], the target named is C. reinhardtii axonemal tubulin purified from the combined cyc1-cyc5 fractions (CP/B tubulin) (C. reinhardtii). Description: dynamic microtubule assay by interference reflection microscopy (IRM); label-free; tubulin at different concentrations in BRB80 with oxygen scavengers, 0.1 mg/ml casein, 1 mM dithiothreitol and 1 mM GTP, 28 °C; extensions grown from TAMRA-labeled GMPCPP-stabilized bovine brain MT seeds held on the coverslip by anti-TAMRA antibodies; constants from linear regression of growth rate against tubulin concentration; tubulin dimer onto the microtubule end.

Assay [2] has the same target. Description: dynamic microtubule assay by IRM with mean-squared displacement (MSD) analysis; MT ends tracked with FIESTA; quadratic fit to the first 15 s of MSD against time; estimated rate constants of tubulin dimer binding and unbinding at the growing end.

Turning to “C. reinhardtii axonemal tubulin purified from the combined cyc1-cyc5 fractions (CP/B tubulin) (complex)”, in assay [1], the koff, minus end was found to be 1.16 s⁻¹; the koff, plus end turned out to be 0.785 s⁻¹; the kon, minus end amounted to 430000 M⁻¹ s⁻¹; the kon, plus end stood at 540000 M⁻¹ s⁻¹. In assay [1], the x-intercept (extrapolated tubulin concentration for growth), minus end was 2.58 µM and the x-intercept (extrapolated tubulin concentration for growth), plus end was 1.35 µM. Further, in assay [2], the koff, minus end (MSD analysis) was 228 s⁻¹; the koff, plus end (MSD analysis) was 341 s⁻¹; the kon, minus end (MSD analysis) was 2.6e+07 M⁻¹ s⁻¹; the kon, plus end (MSD analysis) was 3.86e+07 M⁻¹ s⁻¹. In addition, in assay [2], the kon[Tub], minus end (MSD analysis) is 234 s⁻¹ and the kon[Tub], plus end (MSD analysis) was 348 s⁻¹.
